Data published in US20220135701A1 (Genentech, published 2022).

T1: MuMER (E23-S496) (mouse, UniProt Q60805 23-496)
T1 construct: range 23-496; also called mouse MerTK extracellular domain
T1 sequence (looked up): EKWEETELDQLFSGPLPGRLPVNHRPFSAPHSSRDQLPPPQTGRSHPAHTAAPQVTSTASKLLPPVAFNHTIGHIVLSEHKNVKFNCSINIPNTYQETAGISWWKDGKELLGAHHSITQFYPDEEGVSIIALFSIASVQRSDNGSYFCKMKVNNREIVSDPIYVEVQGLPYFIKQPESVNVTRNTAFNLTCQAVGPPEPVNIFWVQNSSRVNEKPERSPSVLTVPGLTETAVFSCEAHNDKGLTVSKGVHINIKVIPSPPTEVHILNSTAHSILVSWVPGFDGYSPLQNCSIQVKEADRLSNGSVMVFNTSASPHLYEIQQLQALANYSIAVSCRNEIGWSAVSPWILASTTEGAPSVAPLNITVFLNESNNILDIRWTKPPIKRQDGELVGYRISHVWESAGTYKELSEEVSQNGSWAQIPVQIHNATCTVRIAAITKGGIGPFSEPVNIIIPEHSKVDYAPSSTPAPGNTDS

T2: HuMER (R26-A499) (human, UniProt Q12866 26-499)
T2 construct: Extracellular domain with both Ig-like and both fibronectin-like domains; also called human MerTK extracellular domain
T2 sequence: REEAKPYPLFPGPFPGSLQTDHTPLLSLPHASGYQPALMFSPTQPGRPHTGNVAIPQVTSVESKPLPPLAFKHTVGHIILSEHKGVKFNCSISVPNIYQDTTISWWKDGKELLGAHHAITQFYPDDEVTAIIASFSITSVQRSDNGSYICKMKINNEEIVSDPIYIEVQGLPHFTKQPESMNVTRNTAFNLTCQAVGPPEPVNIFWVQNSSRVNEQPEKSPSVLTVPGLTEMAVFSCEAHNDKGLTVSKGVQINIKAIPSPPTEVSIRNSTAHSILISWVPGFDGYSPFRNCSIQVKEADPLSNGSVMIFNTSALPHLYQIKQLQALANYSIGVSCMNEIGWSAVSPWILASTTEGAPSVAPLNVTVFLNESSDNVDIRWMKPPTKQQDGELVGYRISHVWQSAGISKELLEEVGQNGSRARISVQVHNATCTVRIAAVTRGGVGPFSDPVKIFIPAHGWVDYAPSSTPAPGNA

T3: mouse MerTK (mouse, UniProt Q60805 23-496)
T3 construct: also called MuMER
T3 sequence (looked up): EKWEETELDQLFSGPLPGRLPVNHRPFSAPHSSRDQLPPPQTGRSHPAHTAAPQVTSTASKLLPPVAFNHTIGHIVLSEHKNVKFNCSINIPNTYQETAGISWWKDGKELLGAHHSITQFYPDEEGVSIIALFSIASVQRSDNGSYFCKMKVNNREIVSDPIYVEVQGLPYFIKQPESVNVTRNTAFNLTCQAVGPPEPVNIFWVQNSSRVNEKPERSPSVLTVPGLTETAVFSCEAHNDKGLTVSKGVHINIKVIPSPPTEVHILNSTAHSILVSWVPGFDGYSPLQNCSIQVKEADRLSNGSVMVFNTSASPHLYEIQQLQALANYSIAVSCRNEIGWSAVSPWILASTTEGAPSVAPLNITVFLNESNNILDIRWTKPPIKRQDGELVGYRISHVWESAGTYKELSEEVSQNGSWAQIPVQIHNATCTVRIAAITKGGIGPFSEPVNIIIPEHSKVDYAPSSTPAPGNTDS

T4: cynomolgus monkey MerTK (cynomolgus monkey, UniProt A0A2K5V1H9 32-505)
T4 construct: Soluble analyte in SPR; also called Cyno MerTK
T4 sequence: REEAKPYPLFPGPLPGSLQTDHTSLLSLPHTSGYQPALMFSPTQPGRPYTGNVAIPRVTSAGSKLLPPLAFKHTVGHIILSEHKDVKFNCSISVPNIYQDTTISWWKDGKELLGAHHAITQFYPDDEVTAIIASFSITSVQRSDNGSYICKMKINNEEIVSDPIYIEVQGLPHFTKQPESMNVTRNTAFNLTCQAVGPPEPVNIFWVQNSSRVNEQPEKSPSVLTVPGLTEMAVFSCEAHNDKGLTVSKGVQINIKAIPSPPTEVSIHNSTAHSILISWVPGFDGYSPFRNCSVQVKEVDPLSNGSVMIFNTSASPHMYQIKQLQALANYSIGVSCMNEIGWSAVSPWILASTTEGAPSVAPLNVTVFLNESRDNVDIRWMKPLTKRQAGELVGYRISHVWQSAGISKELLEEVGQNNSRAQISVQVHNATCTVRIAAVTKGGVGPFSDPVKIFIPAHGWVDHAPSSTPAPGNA

T5: rat MerTK (rat, UniProt P57097 23-496, limits assumed)
T5 construct: Soluble analyte in SPR
T5 sequence (looked up): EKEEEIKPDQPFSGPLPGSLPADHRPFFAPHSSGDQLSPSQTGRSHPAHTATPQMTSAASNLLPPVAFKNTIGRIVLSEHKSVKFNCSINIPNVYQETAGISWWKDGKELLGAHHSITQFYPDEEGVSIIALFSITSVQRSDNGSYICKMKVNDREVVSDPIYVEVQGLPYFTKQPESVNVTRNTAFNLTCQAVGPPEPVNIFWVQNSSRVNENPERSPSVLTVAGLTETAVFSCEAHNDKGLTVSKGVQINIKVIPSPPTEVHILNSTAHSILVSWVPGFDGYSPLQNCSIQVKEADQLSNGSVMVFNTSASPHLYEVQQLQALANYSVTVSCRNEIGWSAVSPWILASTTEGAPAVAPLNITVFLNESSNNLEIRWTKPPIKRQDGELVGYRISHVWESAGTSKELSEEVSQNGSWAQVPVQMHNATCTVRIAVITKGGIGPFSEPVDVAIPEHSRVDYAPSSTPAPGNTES

T6: human MerTK (human, UniProt Q12866 26-499)
T6 construct: also called HuMER
T6 sequence: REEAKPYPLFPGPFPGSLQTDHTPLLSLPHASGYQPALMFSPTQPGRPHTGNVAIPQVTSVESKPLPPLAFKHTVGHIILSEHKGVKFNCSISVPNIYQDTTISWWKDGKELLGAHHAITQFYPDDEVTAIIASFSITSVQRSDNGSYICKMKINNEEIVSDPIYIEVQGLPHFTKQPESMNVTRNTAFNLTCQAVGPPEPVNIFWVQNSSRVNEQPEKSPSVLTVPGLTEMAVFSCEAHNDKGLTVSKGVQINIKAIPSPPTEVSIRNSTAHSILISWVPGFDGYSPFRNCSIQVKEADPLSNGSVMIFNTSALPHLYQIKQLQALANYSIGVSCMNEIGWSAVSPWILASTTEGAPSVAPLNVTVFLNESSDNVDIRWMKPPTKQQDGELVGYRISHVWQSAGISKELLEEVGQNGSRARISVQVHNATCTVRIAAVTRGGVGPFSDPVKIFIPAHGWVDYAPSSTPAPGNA


How the values were obtained:
[1] = target: T1, MuMER (E23-S496); test: SPR BIAcore T200, Ab captured, 25C
Experimental: (§1) Binding affinity determinations were obtained using Surface Plasmon Resonance (SRP) measurements from a BIAcore™-T200 instrument. Briefly, each rabbit antibody was captured to achieve approximately 100 RU (Response Units). Then, 3-fold serial dilutions of the various MerTK domains (0.4 nM to 100 nM) diluted in HBS-EP buffer (0.01M HEPES pH 7.4, 0.15M NaCl, 3 mM EDTA and 0.05% v/v surfactant P20) was injected into the BIAcore™-T200 instrument at 25° C. or 37° C. with a flow rate of 30 μl/min. Association rates (kₒₙ) and dissociation rates (koff) were calculated using a simple one-to-one Langmuir binding model (BIAcore T200 evaluation software version 2.0). The equilibrium dissociation constant (KD) was calculated as the ratio koff/kₒₙ.
(§2) Antibody epitope determination was assessed by BIAcore analysis for rabbit antibodies binding against both the human and mouse MerTK extracellular domain (HuMER R26-A499 and MuMER E23-S496), Ig1&2 domain, Ig1-only domain, and Ig2-only domain (TABLE 18). Human MerTK and its domains are shown in light gray, while mouse MerTK and its domains are shown in dark gray.

[2] = target: T2, HuMER (R26-A499); test: SPR BIAcore T200, Ab captured, 25C
Experimental: as §1, §2

[3] = target: T3, mouse MerTK; test: SPR BIAcore T200, Ab captured, 37C
Experimental: as §1, with “All binding affinity” for “Binding affinity”, “Resonance (SPR)” for “Resonance (SRP)”, “rabbit or humanized” for “rabbit”, “of MerTK from” for “of the”, “various species” for “various MerTK domains”

[4] = target: T4, cynomolgus monkey MerTK; test: SPR BIAcore T200, Ab captured, 37C
Experimental: as §1, with “All binding affinity” for “Binding affinity”, “Resonance (SPR)” for “Resonance (SRP)”, “rabbit or humanized” for “rabbit”, “of MerTK from” for “of the”, “various species” for “various MerTK domains”

[5] = target: T5, rat MerTK; test: SPR BIAcore T200, Ab captured, 37C
Experimental: as §1, with “All binding affinity” for “Binding affinity”, “Resonance (SPR)” for “Resonance (SRP)”, “rabbit or humanized” for “rabbit”, “of MerTK from” for “of the”, “various species” for “various MerTK domains”

[6] = target: T6, human MerTK; test: SPR BIAcore T200, Ab captured, 37C
Experimental: as §1, with “All binding affinity” for “Binding affinity”, “Resonance (SPR)” for “Resonance (SRP)”, “rabbit or humanized” for “rabbit”, “of MerTK from” for “of the”, “various species” for “various MerTK domains”

[7] = target: T3, mouse MerTK; test: SPR BIAcore T200, Ab captured, 25C
Experimental: as §1, with “All binding affinity” for “Binding affinity”, “Resonance (SPR)” for “Resonance (SRP)”, “rabbit or humanized” for “rabbit”, “of MerTK from” for “of the”, “various species” for “various MerTK domains”

[8] = target: T4, cynomolgus monkey MerTK; test: SPR BIAcore T200, Ab captured, 25C
Experimental: as §1, with “All binding affinity” for “Binding affinity”, “Resonance (SPR)” for “Resonance (SRP)”, “rabbit or humanized” for “rabbit”, “of MerTK from” for “of the”, “various species” for “various MerTK domains”

[9] = target: T6, human MerTK; test: SPR BIAcore T200, Ab captured, 25C
Experimental: as §1, with “All binding affinity” for “Binding affinity”, “Resonance (SPR)” for “Resonance (SRP)”, “rabbit or humanized” for “rabbit”, “of MerTK from” for “of the”, “various species” for “various MerTK domains”

Row | Kd [1] | Kd [2] | Kd [3] | Kd [4] | Kd [5] | Kd [6] | Kd [7] | Kd [8] | Kd [9] | Binder
1 | 0.6 nM | 2.6 nM | 0.6 nM | 2.5 nM | 1.7 nM | 5.1 nM | 0.6 nM | 2.5 nM | 2.6 nM | Rbt9E3.FN (antibody, V domains shown, Recombinant rabbit monoclonal antibody, Expi293, protein A purified) VH: QSVEESGGRLVTPGTPLTLTCTVSGFSLSSNAMSWVRQAPGKGLEWIGIISSSGSTYSASWAKGRFTISKTSTTMDLKITSPTTEDTATYFCARVGFFVGYGAYDYGIIHRLDLWGQGTLVTVSS VL: AAVLTQTPSPVSAAVGGTVSISCQSSKSIYNNNWLSWYQQKPGQPPKLLIYDASDLASGVPSRFEGSGSGTEFTLTISDLECDDAATYYCAGGYSGDSDYAFGGGTEVVVK
2 | 2.3 nM | 44 nM | – | – | – | – | 2.3 nM | 14.7 nM | 44 nM | Rbt8F4 (antibody, V domains shown, Recombinant rabbit monoclonal antibody, Expi293, protein A purified) VH: QSVQESGGRLVTPGTPLTLTCTVSGFSLINYPMSWVRQAPGKGLEWIGVISSTGGTNYASWAKGRFTISKTSTTVDLKITSPTTEDTATYFCARVDFLVYLGGAYIIWGLDLWGQGTLVTVSS VL: AAVLTQTPSPVSAAVGGTVTINCQSSPNIYSNYLSWFQQKPGQPPKILIYGASTLASGVPSRFKGSGSGTQFTLTISDVQCDDAATYYCAGGYSDSSEAYAFGGGTEVVVK
3 | 2.2 nM | 94 nM | – | – | – | – | 2.2 nM | 82.2 nM | 94 nM | Rbt22C4 (antibody, V domains shown, Recombinant rabbit monoclonal antibody, Expi293, protein A purified) VH: QSVEESGGRLVTPGTPLTLTCTVSGFSLSTYSMSWVRQAPGKGLEWLGIVSVAIDPVYATWARGRFTISRTSTTVNLKITSPTTEDTATYFCVRVAFSTNGIPHRLDLWGQGTLVTVSS VL: AQVLTQTASSVSAAVGGTVTISCQSSPSVYNHNWLSWYQQKPGQPPKLLIYEASKLASGVPSRFSGSGSGTQFTLTISDVQCDEAATYYCAGGFSSGSDSFAFGGGTEVVVT
